Measured values published in patent publication US20250297004A1, “NECTIN-4 BINDING AGENTS” (INNATE PHARMA, priority 2022, published 2025).

Tests used:
human Nectin-4 = biological target: T1, human Nectin-4 (Homo sapiens, UniProt Q96NY8); assay: Species cross-reactivity, binding to Nectin-4
T1 sequence (Q96NY8 32-510): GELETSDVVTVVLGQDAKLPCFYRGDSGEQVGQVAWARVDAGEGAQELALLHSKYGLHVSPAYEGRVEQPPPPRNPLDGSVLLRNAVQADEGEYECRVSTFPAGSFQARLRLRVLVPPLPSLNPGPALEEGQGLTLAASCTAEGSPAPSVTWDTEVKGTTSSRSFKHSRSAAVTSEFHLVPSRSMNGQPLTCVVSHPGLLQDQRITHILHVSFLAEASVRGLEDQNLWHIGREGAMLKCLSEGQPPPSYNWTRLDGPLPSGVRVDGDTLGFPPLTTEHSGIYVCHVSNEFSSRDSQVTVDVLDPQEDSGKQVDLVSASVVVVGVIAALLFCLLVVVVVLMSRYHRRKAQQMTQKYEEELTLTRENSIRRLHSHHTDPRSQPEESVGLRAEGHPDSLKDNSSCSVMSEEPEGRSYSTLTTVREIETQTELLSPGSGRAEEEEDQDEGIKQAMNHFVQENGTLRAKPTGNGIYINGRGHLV
Method: (§1) Anti-Nectin-4 antibodies were tested by flow cytometry for binding to different CHO cell lines made to express respectively the mouse, cynomolgus and rat Nectin-4 protein (including an N-terminal V5 tag not shown in the sequences below).
Antibody 5E7 bound human, cynomolgus, as well as rat Nectin 4 proteins but lack binding to the mouse Nectin 4 protein. FIGS. 6A and 6B show binding of anti-Nectin-4 antibodies on rat and cynomolgus Nectin-4-expressing CHO cell lines.

[1] = biological target: T2, human Nectin-4 expressed on cells (human, UniProt Q96NY8 32-510); assay: cell-based or functional assay
T2 sequence: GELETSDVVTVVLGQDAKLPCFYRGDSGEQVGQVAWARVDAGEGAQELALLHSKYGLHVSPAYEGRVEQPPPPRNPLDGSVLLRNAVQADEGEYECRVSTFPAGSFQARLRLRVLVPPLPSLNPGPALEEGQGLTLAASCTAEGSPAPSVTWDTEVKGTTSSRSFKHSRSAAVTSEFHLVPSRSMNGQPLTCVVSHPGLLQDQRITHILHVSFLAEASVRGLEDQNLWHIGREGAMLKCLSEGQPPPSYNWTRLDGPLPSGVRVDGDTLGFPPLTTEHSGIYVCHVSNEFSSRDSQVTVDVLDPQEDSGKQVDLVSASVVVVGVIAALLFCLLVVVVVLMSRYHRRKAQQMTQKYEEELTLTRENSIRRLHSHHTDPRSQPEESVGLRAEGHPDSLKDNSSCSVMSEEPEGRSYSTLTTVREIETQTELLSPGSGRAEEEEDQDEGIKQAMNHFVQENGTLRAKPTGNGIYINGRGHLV

[2] = biological target: T3, cynomolgus Nectin-4 protein expressed on CHO cells (cynomolgus, UniProt Q96NY8 32-510 (human entry)); assay: flow cytometry on CHO cells expressing cynomolgus Nectin-4, Median MFI (PE)
T3 construct: also called Cyno Nectin-4 V5
T3 chain: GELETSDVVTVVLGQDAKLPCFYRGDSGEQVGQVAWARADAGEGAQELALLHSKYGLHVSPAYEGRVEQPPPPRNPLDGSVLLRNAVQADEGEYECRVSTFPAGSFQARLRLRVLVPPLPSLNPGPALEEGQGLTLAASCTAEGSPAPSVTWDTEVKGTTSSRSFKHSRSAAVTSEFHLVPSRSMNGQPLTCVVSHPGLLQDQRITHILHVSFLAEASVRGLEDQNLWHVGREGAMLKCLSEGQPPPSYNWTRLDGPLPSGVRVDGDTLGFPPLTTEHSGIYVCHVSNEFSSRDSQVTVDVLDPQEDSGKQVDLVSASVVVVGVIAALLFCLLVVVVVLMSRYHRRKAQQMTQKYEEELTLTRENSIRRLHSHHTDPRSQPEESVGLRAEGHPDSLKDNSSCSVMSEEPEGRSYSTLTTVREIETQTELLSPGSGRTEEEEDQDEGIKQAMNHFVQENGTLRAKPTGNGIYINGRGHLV
Method: as §1

[3] = biological target: T2, human Nectin-4 expressed on cells; assay: cell-based or functional assay; remark: listed apart in the source
[4] = biological target: T4, rat Nectin-4 protein expressed on CHO cells (rat, UniProt Q8R007 31-508 (mouse entry)); assay: flow cytometry on CHO cells expressing rat Nectin-4, Median MFI (PE)
T4 construct: no cleavage site is stated; also called Rat Nectin-4 V5
T4 chain: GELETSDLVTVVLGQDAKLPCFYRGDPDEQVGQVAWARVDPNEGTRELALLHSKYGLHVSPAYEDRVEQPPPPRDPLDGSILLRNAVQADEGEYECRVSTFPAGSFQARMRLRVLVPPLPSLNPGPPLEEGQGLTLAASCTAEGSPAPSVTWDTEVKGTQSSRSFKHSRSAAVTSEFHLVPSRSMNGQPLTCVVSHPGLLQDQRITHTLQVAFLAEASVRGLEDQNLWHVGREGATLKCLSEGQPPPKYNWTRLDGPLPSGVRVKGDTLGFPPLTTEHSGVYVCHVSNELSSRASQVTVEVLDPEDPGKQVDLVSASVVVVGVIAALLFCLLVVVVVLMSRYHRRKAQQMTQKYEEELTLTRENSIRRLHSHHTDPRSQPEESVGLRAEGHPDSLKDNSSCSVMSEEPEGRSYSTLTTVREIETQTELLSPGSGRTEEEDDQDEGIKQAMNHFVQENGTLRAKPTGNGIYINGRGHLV
Method: as §1

| Molecule | binding to human Nectin 4 protein (human Nectin-4) | internalization efficiency on SUM190, normalized to chimeric parental antibody (Fab-ZAP, CTG), experiment 1 [1] | internalization efficiency on SUM190, normalized to chimeric parental antibody (Fab-ZAP, CTG), experiment 2 [1] | EC50 (read off the curve) [2] | internalization efficiency on MDA-MB-468, normalized to chimeric parental antibody (Fab-ZAP, CTG), first column [3] | internalization efficiency on MDA-MB-468, normalized to chimeric parental antibody (Fab-ZAP, CTG), second column [3] | EC50 (read off the curve) [4] |
| --- | --- | --- | --- | --- | --- | --- | --- |
| 5E7 (antibody, V domains shown) VH: QVQLQQPGAELVKPGASVKLSCKASGYIFTSYWMHWVKQRPGQGLEWIGEIDPSDSYTNYNQKFKGKATLTLDKSSSTTYMQLSSLTSEDSAVYYCVRGYGNYGDYWGQGTTLTVSSASTKGP VL: DVVMTQAAFSNPVTLGTSASISCRSSKSLLHSNGITYLYWYLQKPGQSPQLLIYQMSNLASGVPDRFSSSGSGTDFTLRISRVEAEDVGVYYCAQNLELPWTFGGGTKLEIKRTVAAP | bound | – | – | – | – | – | – |
| chimeric parental 5E7 antibody (antibody, V domains shown, Chimeric antibody, murine variable domains with human constant regions; also called ch5E7; CHG1-M-1N4-5E7) VH: QVQLQQPGAELVKPGASVKLSCKASGYIFTSYWMHWVKQRPGQGLEWIGEIDPSDSYTNYNQKFKGKATLTLDKSSSTTYMQLSSLTSEDSAVYYCVRGYGNYGDYWGQGTTLTVSS VL: DVVMTQAAFSNPVTLGTSASISCRSSKSLLHSNGITYLYWYLQKPGQSPQLLIYQMSNLASGVPDRFSSSGSGTDFTLRISRVEAEDVGVYYCAQNLELPWTFGGGTKLEIKR | – | 100 % of chimeric parental | 100 % of chimeric parental | ~0.03 µg/mL | 100 % of chimeric parental | 100 % of chimeric parental | ~0.1 µg/mL |
